Measured values: paper PMC3741272, “Identification and Characterization of a Novel aac(6′)-Iag Associated with the bla IMP-1–Integron in a Multidrug-Resistant Pseudomonas aeruginosa” (PLoS ONE, 2013)

Tests used:
Experiment in all cases: purified protein
Assay type in all cases: biochemical, Pseudomonas aeruginosa
Conditions in all cases: 200 µM acetyl-CoA, 2 mM DTNB, 50 mM phosphate pH 7.0, 37°C
[1] = tested on: CN[C@@H]1[C@@H](O)[C@@H](O[C@@H]2[C@@H](O)[C@H](O[C@H]3OC(CN)=CC[C@H]3N)[C@@H](N)C[C@H]2N)OC[C@]1(C)O
[2] = tested on: CN[C@@H]1[C@@H](O)[C@@H](O[C@@H]2[C@@H](O)[C@H](O[C@H]3O[C@H](CN)[C@@H](O)[C@H](O)[C@H]3O)[C@@H](N)C[C@H]2NC(=O)[C@@H](O)CN)OC[C@]1(C)O
[3] = tested on: NCC[C@H](O)C(=O)N[C@@H]1C[C@H](N)[C@@H](O[C@H]2O[C@H](CN)CC[C@H]2N)[C@H](O)[C@H]1O[C@H]1O[C@H](CO)[C@@H](O)[C@H](N)[C@H]1O
[4] = tested on: NCC[C@H](O)C(=O)N[C@@H]1C[C@H](N)[C@@H](O[C@H]2O[C@H](CN)[C@@H](O)[C@H](O)[C@H]2O)[C@H](O)[C@H]1O[C@H]1O[C@H](CO)[C@@H](O)[C@H](N)[C@H]1O
[5] = tested on: NC[C@@H]1CC[C@@H](N)[C@@H](O[C@H]2[C@H](O)[C@@H](O[C@H]3O[C@H](CO)[C@@H](O)[C@H](N)[C@H]3O)[C@H](N)C[C@@H]2N)O1
[6] = tested on: NC[C@H]1O[C@H](O[C@H]2[C@H](O)[C@@H](O[C@H]3O[C@H](CO)[C@@H](O)[C@H](N)[C@H]3O)[C@H](N)C[C@@H]2N)[C@H](N)C[C@@H]1O
[7] = tested on: NC[C@H]1O[C@H](O[C@H]2[C@H](O)[C@@H](O[C@H]3O[C@H](CO)[C@@H](O)[C@H](N)[C@H]3O)[C@H](N)C[C@@H]2N)[C@H](O)[C@@H](O)[C@@H]1O

Substance: AAC(6′)-Iag (Pseudomonas aeruginosa)
- Km [1]: 8.81 ± 1.2 µM
- kcat [1]: 0.745 ± 0.08 s⁻¹
- kcat/Km [1]: 85000 M⁻¹ s⁻¹
- Km [2]: 209 ± 88 µM
- kcat [2]: 0.10 ± 0.03 s⁻¹
- kcat/Km [2]: 520 M⁻¹ s⁻¹
- Km [3]: 9.9 ± 1.2 µM
- kcat [3]: 0.79 ± 0.07 s⁻¹
- kcat/Km [3]: 80000 M⁻¹ s⁻¹
- Km [4]: 189 ± 108 µM
- kcat [4]: 0.11 ± 0.03 s⁻¹
- kcat/Km [4]: 780 M⁻¹ s⁻¹
- Km [5]: 3.03 ± 0.64 µM
- kcat [5]: 0.194 ± 0.02 s⁻¹
- kcat/Km [5]: 64000 M⁻¹ s⁻¹
- Km [6]: 3.27 ± 0.76 µM
- kcat [6]: 0.15 ± 0.03 s⁻¹
- kcat/Km [6]: 46000 M⁻¹ s⁻¹
- Km [7]: 52.1 ± 16 µM
- kcat [7]: 0.29 ± 0.06 s⁻¹
- kcat/Km [7]: 5600 M⁻¹ s⁻¹
